# Measured values as given in PMC2555995 (The Journal of Biological Chemistry, 2008).
# Substitutions are numbered along the chain they refer to. Names may count otherwise.
# T1: His6-Nab2 (S. cerevisiae, UniProt P32505 1-525)
# T1 sequence (looked up): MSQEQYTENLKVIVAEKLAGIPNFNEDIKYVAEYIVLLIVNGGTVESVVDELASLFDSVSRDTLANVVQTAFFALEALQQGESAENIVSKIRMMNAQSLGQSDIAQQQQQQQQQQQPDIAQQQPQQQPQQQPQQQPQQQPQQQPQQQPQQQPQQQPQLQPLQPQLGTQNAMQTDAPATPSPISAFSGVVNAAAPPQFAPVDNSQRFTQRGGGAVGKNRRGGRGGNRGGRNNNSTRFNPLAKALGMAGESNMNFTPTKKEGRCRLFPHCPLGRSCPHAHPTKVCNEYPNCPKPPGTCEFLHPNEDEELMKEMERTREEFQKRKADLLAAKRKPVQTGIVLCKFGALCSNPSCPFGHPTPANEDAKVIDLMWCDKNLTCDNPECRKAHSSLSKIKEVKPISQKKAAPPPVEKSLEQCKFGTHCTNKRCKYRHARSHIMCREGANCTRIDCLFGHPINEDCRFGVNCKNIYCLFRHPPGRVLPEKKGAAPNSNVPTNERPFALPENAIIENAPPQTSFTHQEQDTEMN
# B1: GST-CT-Mlp1 (residues 1490–1875) (domain or fragment, S. cerevisiae, UniProt Q02455 1490-1875, looked up)
# chain: AQERLNQPSNINMEEIKKKWESEHEQEVSQKIREAEEALKKRIRLPTEEKINKIIERKKEELEKEFEEKVEERIKSMEQSGEIDVVLRKQLEAKVQEKQKELENEYNKKLQEELKDVPHSSHISDDERDKLRAEIESRLREEFNNELQAIKKKSFDEGKQQAMMKTTLLERKLAKMESQLSETKQSAESPPKSVNNVQNPLLGLPRKIEENSNSPFNPLLSGEKLLKLNSKSSSGGFNPFTSPSPNKHLQNDNDKRESLANKTDPPTHLEPSFNIPASRGLISSSSTLSTDTNDEELTSNNPAQKDSSNRNVQSEEDTEKKKEGEPVKRGEAIEEQTKSNKRPIDEVGELKNDEDDTTENINESKKIKTEDEEEKETDKVNDENSI
# B2: GST-Nab2-N-WT (residues 1–97) (domain or fragment, S. cerevisiae, UniProt P32505 1-97, looked up)
# chain: MSQEQYTENLKVIVAEKLAGIPNFNEDIKYVAEYIVLLIVNGGTVESVVDELASLFDSVSRDTLANVVQTAFFALEALQQGESAENIVSKIRMMNAQ
# B3: GST-Nab2-N-F73W (residues 1–97) (domain or fragment, S. cerevisiae, UniProt P32505 1-97, looked up)
# chain: B2 chain with F73W
# B4: GST-Nab2-N-F72D (residues 1–97) (domain or fragment, S. cerevisiae, UniProt P32505 1-97, looked up)
# chain: B2 chain with F72D
# Tests used:
# [1] = molecular target: T1, His6-Nab2; assay: pull-down
# [2] = molecular target: His6-S-Tag-Mlp1-NBD (residues 1586–1768) (S. cerevisiae, UniProt Q02455 1586-1768); assay: ELISA
Binder,binding result [1],Kd [2]
B1,binds,–
B2,–,1260 nM
B3,–,830 nM
B4,–,2310 nM
